Test results reported in patent US20180155451A1 (published 2018).

B1: GpH7-B3 variant K334_12R/GpL16-k0 (antibody, human IgG1, kappa)
heavy: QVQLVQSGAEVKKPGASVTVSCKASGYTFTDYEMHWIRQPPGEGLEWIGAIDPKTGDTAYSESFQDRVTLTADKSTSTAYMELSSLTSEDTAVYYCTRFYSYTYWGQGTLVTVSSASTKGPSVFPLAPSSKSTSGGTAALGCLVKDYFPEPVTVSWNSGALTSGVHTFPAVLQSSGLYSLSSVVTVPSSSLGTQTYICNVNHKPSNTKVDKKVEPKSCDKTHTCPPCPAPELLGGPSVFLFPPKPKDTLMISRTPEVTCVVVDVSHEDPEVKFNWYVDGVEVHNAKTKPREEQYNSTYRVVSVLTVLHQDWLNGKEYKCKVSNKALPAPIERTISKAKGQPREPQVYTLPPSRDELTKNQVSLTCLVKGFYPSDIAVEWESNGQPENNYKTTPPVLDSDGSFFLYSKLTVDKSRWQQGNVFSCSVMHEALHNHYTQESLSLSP
light: DIVMTQSPLSLPVTPGEPASISCQASESLVHSNRNTYLHWYLQKPGQSPQLLIYKVSNRFSGVPDRFSGSGSGTDFTLKISRVEAEDVGVYYCSQNTHVPPTFGQGTKVEIERTVAAPSVFIFPPSDEQLKSGTASVVCLLNNFYPREAKVQWKVDNALQSGNSQESVTEQDSKDSTYSLSSTLTLSKADYEKHKVYACEVTHQGLSSPVTKSFNRGEC
notes: homodimerized; also called Ho Ab K334_12R
B2: GpH7-B3 variant P271_04F/GpL16-k0 (antibody, human IgG1, kappa)
heavy: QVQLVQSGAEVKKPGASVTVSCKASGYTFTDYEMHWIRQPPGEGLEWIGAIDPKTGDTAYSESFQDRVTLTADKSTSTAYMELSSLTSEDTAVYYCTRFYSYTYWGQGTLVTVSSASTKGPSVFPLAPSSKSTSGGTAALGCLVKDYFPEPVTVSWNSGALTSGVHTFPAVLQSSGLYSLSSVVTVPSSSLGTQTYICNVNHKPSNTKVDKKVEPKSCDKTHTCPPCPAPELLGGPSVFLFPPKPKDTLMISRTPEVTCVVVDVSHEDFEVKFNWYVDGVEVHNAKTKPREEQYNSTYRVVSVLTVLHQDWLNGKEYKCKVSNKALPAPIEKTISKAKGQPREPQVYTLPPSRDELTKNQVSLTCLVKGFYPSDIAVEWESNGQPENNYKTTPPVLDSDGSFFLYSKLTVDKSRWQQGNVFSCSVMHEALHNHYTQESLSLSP
light: B1 light
notes: homodimerized; also called Ho Ab P271_04F
B3: GpH7-B3 variant P238_15Y/GpL16-k0 (antibody, human IgG1, kappa)
heavy: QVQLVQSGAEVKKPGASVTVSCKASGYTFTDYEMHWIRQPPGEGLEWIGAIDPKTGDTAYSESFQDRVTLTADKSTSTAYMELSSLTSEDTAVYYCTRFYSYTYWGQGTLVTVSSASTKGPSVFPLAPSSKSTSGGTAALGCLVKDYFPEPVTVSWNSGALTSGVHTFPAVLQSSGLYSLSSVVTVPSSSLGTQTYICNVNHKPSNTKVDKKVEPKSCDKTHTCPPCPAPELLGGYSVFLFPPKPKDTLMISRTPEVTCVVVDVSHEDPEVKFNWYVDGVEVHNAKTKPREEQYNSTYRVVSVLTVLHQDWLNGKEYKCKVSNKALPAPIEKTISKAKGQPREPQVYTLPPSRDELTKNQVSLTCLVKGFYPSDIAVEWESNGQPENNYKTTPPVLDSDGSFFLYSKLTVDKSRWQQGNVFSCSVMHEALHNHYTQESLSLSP
light: B1 light
notes: homodimerized; also called Ho Ab P238_15Y
B4: GpH7-B3 variant P271_02A/GpL16-k0 (antibody, human IgG1, kappa)
heavy: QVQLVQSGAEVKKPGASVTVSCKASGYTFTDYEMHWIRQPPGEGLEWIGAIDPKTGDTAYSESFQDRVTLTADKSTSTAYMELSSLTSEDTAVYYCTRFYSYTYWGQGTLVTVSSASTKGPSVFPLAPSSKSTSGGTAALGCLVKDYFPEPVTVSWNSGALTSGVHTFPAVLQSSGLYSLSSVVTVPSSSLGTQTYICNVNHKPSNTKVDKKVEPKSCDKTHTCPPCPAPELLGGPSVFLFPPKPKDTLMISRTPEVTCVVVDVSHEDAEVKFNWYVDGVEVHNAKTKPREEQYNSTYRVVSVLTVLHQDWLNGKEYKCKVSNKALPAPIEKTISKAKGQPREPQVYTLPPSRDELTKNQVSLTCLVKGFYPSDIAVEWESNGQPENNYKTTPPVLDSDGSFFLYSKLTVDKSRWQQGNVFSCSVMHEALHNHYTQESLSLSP
light: B1 light
notes: homodimerized; also called Ho Ab P271_02A
B5: GpH7-B3 variant P271_07I/GpL16-k0 (antibody, human IgG1, kappa)
heavy: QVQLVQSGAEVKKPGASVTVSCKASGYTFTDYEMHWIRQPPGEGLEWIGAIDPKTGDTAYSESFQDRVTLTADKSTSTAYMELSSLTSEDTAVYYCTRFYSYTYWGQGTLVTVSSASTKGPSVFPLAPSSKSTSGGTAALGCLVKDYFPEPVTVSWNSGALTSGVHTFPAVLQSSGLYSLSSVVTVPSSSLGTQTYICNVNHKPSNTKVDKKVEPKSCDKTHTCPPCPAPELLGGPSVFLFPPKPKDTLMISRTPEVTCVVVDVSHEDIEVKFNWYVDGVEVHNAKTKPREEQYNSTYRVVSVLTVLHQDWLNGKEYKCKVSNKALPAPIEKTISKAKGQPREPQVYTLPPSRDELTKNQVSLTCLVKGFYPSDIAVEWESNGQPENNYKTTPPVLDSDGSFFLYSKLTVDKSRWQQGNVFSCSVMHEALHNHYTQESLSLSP
light: B1 light
notes: homodimerized; also called Ho Ab P271_07I
B6: GpH7-A5/GpH7-B3 variant E269_04F/GpL16-k0 (antibody, human IgG1, kappa)
heavy 1: not shown
heavy 2: not shown
light: B1 light
notes: heterodimerized; also called He Ab E269_04F
B7: GpH7-A5/GpH7-B3 variant E269_08L/GpL16-k0 (antibody, human IgG1, kappa)
heavy 1: not shown
heavy 2: not shown
light: B1 light
notes: heterodimerized; also called He Ab E269_08L
B8: GpH7-A5/GpH7-B3 variant A330_14T/GpL16-k0 (antibody, human IgG1, kappa)
heavy 1: not shown
heavy 2: not shown
light: B1 light
notes: heterodimerized; also called He Ab A330_14T
B9: GpH7-A5/GpH7-B3 variant E269_03V/GpL16-k0 (antibody, human IgG1, kappa)
heavy 1: not shown
heavy 2: not shown
light: B1 light
notes: heterodimerized; also called He Ab E269_03V
B10: GpH7-A5/GpH7-B3 variant A327_06M/GpL16-k0 (antibody, human IgG1, kappa)
heavy 1: not shown
heavy 2: not shown
light: B1 light
notes: heterodimerized; also called He Ab A327_06M
B11: GpH7-A5/GpH7-B3 variant E269_09D/GpL16-k0 (antibody, human IgG1, kappa)
heavy 1: not shown
heavy 2: not shown
light: B1 light
notes: heterodimerized; also called He Ab E269_09D
B12: GpH7-A5/GpH7-B3 variant E269_15Y/GpL16-k0 (antibody, human IgG1, kappa)
heavy 1: not shown
heavy 2: not shown
light: B1 light
notes: heterodimerized; also called He Ab E269_15Y
B13: GpH7-A5/GpH7-B3 variant E269_16H/GpL16-k0 (antibody, human IgG1, kappa)
heavy 1: not shown
heavy 2: not shown
light: B1 light
notes: heterodimerized; also called He Ab E269_16H
B14: GpH7-A5/GpH7-B3 variant E269_07I/GpL16-k0 (antibody, human IgG1, kappa)
heavy 1: not shown
heavy 2: not shown
light: B1 light
notes: heterodimerized; also called He Ab E269_07I
B15: GpH7-A5/GpH7-B3 variant A330_09D/GpL16-k0 (antibody, human IgG1, kappa)
heavy 1: not shown
heavy 2: not shown
light: B1 light
notes: heterodimerized; also called He Ab A330_09D
B16: GpH7-A5/GpH7-B3 variant A327_07I/GpL16-k0 (antibody, human IgG1, kappa)
heavy 1: not shown
heavy 2: not shown
light: B1 light
notes: heterodimerized; also called He Ab A327_07I
B17: GpH7-A5/GpH7-B3 variant A330_05P/GpL16-k0 (antibody, human IgG1, kappa)
heavy 1: not shown
heavy 2: not shown
light: B1 light
notes: heterodimerized; also called He Ab A330_05P
B18: GpH7-A5/GpH7-B3 variant E269_14T/GpL16-k0 (antibody, human IgG1, kappa)
heavy 1: not shown
heavy 2: not shown
light: B1 light
notes: heterodimerized; also called He Ab E269_14T
B19: GpH7-A5/GpH7-B3 variant A327_13S/GpL16-k0 (antibody, human IgG1, kappa)
heavy 1: not shown
heavy 2: not shown
light: B1 light
notes: heterodimerized; also called He Ab A327_13S
B20: GpH7-A5/GpH7-B3 variant A327_10E/GpL16-k0 (antibody, human IgG1, kappa)
heavy 1: not shown
heavy 2: not shown
light: B1 light
notes: heterodimerized; also called He Ab A327_10E
B21: GpH7-A5/GpH7-B3 variant E269_13S/GpL16-k0 (antibody, human IgG1, kappa)
heavy 1: not shown
heavy 2: not shown
light: B1 light
notes: heterodimerized; also called He Ab E269_13S
B22: GpH7-A5/GpH7-B3 variant E269_02A/GpL16-k0 (antibody, human IgG1, kappa)
heavy 1: not shown
heavy 2: not shown
light: B1 light
notes: heterodimerized; also called He Ab E269_02A
B23: GpH7-A5/GpH7-B3 variant A330_08L/GpL16-k0 (antibody, human IgG1, kappa)
heavy 1: not shown
heavy 2: not shown
light: B1 light
notes: heterodimerized; also called He Ab A330_08L; GpH7-A5/GpH7-B3-20-08L/GpL16-k0
B24: GpH7-A5/GpH7-B3 variant E269_01G/GpL16-k0 (antibody, human IgG1, kappa)
heavy 1: not shown
heavy 2: not shown
light: B1 light
notes: heterodimerized; also called He Ab E269_01G
B25: GpH7-A5/GpH7-B3 variant A327_09D/GpL16-k0 (antibody, human IgG1, kappa)
heavy 1: not shown
heavy 2: not shown
light: B1 light
notes: heterodimerized; also called He Ab A327_09D
B26: GpH7-A5/GpH7-B3 variant A330_16H/GpL16-k0 (antibody, human IgG1, kappa)
heavy 1: not shown
heavy 2: not shown
light: B1 light
notes: heterodimerized; also called He Ab A330_16H
B27: GpH7-A5/GpH7-B3 variant E269_06M/GpL16-k0 (antibody, human IgG1, kappa)
heavy 1: not shown
heavy 2: not shown
light: B1 light
notes: heterodimerized; also called He Ab E269_06M
B28: GpH7-A5/GpH7-B3 variant A327_03V/GpL16-k0 (antibody, human IgG1, kappa)
heavy 1: not shown
heavy 2: not shown
light: B1 light
notes: heterodimerized; also called He Ab A327_03V
B29: GpH7-A5/GpH7-B3 variant A330_11K/GpL16-k0 (antibody, human IgG1, kappa)
heavy 1: not shown
heavy 2: not shown
light: B1 light
notes: heterodimerized; also called He Ab A330_11K
B30: GpH7-A5/GpH7-B3 variant E269_05P/GpL16-k0 (antibody, human IgG1, kappa)
heavy 1: not shown
heavy 2: not shown
light: B1 light
notes: heterodimerized; also called He Ab E269_05P

Each binder was assayed against T1, FcγRIa (human, UniProt P12314 16-292) (assay: SPR; vs GpH7-B3/GpL16-k0=100).
T1 construct: extracellular domain; also called FcgRI; CD64
T1 sequence (P12314 16-292): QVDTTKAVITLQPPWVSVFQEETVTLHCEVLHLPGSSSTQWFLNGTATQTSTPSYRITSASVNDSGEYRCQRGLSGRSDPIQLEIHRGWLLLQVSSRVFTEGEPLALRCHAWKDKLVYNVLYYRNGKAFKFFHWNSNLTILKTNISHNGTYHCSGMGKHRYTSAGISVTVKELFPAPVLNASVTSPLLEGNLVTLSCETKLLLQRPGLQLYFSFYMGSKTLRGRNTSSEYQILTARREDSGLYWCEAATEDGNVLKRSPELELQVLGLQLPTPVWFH

Ho/Con_1a	Binder
102 % of control	B1
100 % of control	B2
99 % of control	B3
102 % of control	B4
102 % of control	B5

Each binder was assayed against T1, FcγRIa (assay: SPR; vs GpH7-A5/GpH7-B3/GpL16-k0=100).

He/Con_1a	Binder
103 % of control	B6
104 % of control	B7
105 % of control	B8
103 % of control	B9
103 % of control	B10
107 % of control	B11
106 % of control	B12
106 % of control	B13
103 % of control	B14
109 % of control	B15
104 % of control	B16
101 % of control	B17
106 % of control	B18
102 % of control	B19
103 % of control	B20
103 % of control	B21
104 % of control	B22
107 % of control	B23
104 % of control	B24
103 % of control	B25
106 % of control	B26
104 % of control	B27
103 % of control	B28
103 % of control	B29
102 % of control	B30
